molecular target: T1, CD40-Fc (immobilized recombinant human CD40) (human, UniProt P25942 21-193, limits assumed); assay: ELISA, CD40-Fc coated, HeLa supernatant, detection with non-competitive anti-CD40L
T1 construct: Coated on the ELISA plate
T1 sequence (P25942 21-193 limits assumed): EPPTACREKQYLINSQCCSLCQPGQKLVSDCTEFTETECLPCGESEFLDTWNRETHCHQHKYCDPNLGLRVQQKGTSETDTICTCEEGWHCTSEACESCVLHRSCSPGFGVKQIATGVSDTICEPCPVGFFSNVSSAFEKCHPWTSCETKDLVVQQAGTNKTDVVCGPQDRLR

| Binder | binding result |
| --- | --- |
| construct encoded by pTG20042: [N-terminus]-[collagen domain(30)]-[coiled-coil neck domain]-[CD40L] (ligand, Tested as clarified HeLa supernatant) AEMKTYSHRTMPSACTLVMCSSVESGLPGRDGRDGREGPRGEKGDPGLPGAAGQAGMPGQAGPVGPKGDNGSVGEPGPKGDTGPSGPPGPPGVPGPAGREGPLGKQGNIGPQGKPDVASLRQQVEALQGQVQHLQAAFSQYKKVENPQIAAHVISEASSKTTSVLQWAEKGYYTMSNNLVTLENGKQLTVKRQGLYYIYAQVTFCSNREASSQAPFIASLCLKSPGRFERILLRAANTHSSAKPCGQQSIHLGGVFELQPGASVFVNVTDPSQVSHGTGFTSFGLLKL | binds |
| construct encoded by pTG19966: [N-terminus]-[coiled-coil neck domain]-[CD40L] (ligand, Tested as clarified HeLa supernatant, oligomeric state mixed; It was detected by anti-FLAG immunoblot) AEMKTYSHRTMPSACTLVMCSSVESDVASLRQQVEALQGQVQHLQAAFSQYKKVENPQIAAHVISEASSKTTSVLQWAEKGYYTMSNNLVTLENGKQLTVKRQGLYYIYAQVTFCSNREASSQAPFIASLCLKSPGRFERILLRAANTHSSAKPCGQQSIHLGGVFELQPGASVFVNVTDPSQVSHGTGFTSFGLLKL | binds |
| construct encoded by pTG19967: [N-terminus]-[coiled-coil neck domain]-[linker]-[CD40L] (ligand) AEMKTYSHRTMPSACTLVMCSSVESDVASLRQQVEALQGQVQHLQAAFSQYKKVEGGGSGGGSGGGSNPQIAAHVISEASSKTTSVLQWAEKGYYTMSNNLVTLENGKQLTVKRQGLYYIYAQVTFCSNREASSQAPFIASLCLKSPGRFERILLRAANTHSSAKPCGQQSIHLGGVFELQPGASVFVNVTDPSQVSHGTGFTSFGLLKL | binds |
| construct encoded by pTG19325: fusion protein SPD (M1-G257, P35247 numbering)-CD40L (H47 to L261 from P29965 numbering) (ligand, Tested as clarified, unpurified supernatant of infected/transfected HeLa cells; concentration unknown; The construct begins at M1 of SPD, so the entry may include the native signal peptide; The form range is that of the CD40L part) AEMKTYSHRTMPSACTLVMCSSVESGLPGRDGRDGREGPRGEKGDPGLPGAAGQAGMPGQAGPVGPKGDNGSVGEPGPKGDTGPSGPPGPPGVPGPAGREGPLGKQGNIGPQGKPGPKGEAGPKGEVGAPGMQGSAGARGLAGPKGERGVPGERGVPGNTGAAGSAGAMGPQGSPGARGPPGLKGDKGIPGDKGAKGESGLPDVASLRQQVEALQGQVQHLQAAFSQYKKVELFPNGHRRLDKIEDERNLHEDFVFMKTIQRCNTGERSLSLLNCEEIKSQFEGFVKDIMLNKEETKKENSFEMQKGDQNPQIAAHVISEASSKTTSVLQWAEKGYYTMSNNLVTLENGKQLTVKRQGLYYIYAQVTFCSNREASSQAPFIASLCLKSPGRFERILLRAANTHSSAKPCGQQSIHLGGVFELQPGASVFVNVTDPSQVSHGTGFTSFGLLKL | binds |
| construct encoded by pTG20041: [N-terminus]-[collagen domain(12bis)]-[coiled-coil neck domain]-[CD40L] (ligand, Tested as clarified HeLa supernatant) AEMKTYSHRTMPSACTLVMCSSVESGPLGKQGNIGPQGKPGPKGEAGPKGEVGAPGMQGSADVASLRQQVEALQGQVQHLQAAFSQYKKVENPQIAAHVISEASSKTTSVLQWAEKGYYTMSNNLVTLENGKQLTVKRQGLYYIYAQVTFCSNREASSQAPFIASLCLKSPGRFERILLRAANTHSSAKPCGQQSIHLGGVFELQPGASVFVNVTDPSQVSHGTGFTSFGLLKL | binds |
| construct encoded by pTG19969: [N-terminus]-[collagen domain(12)]-[coiled-coil neck domain]-[linker]-[CD40L] (ligand) AEMKTYSHRTMPSACTLVMCSSVESGQAGPVGPKGDNGSVGEPGPKGDTGPSGPPGPPGVPDVASLRQQVEALQGQVQHLQAAFSQYKKVEGGGSGGGSGGGSNPQIAAHVISEASSKTTSVLQWAEKGYYTMSNNLVTLENGKQLTVKRQGLYYIYAQVTFCSNREASSQAPFIASLCLKSPGRFERILLRAANTHSSAKPCGQQSIHLGGVFELQPGASVFVNVTDPSQVSHGTGFTSFGLLKL | binds |
| construct encoded by pTG20038: [N-terminus]-[collagen domain(6 + N-Gly)]-[coiled-coil neck domain]-[CD40L] (ligand, Tested as clarified HeLa supernatant) AEMKTYSHRTMPSACTLVMCSSVESGQAGPVGPKGDNGSVGEPDVASLRQQVEALQGQVQHLQAAFSQYKKVENPQIAAHVISEASSKTTSVLQWAEKGYYTMSNNLVTLENGKQLTVKRQGLYYIYAQVTFCSNREASSQAPFIASLCLKSPGRFERILLRAANTHSSAKPCGQQSIHLGGVFELQPGASVFVNVTDPSQVSHGTGFTSFGLLKL | binds |
| construct encoded by pTG20039: [N-terminus]-[collagen domain(6 - N-Gly)]-[coiled-coil neck domain]-[CD40L] (ligand, Tested as clarified HeLa supernatant) AEMKTYSHRTMPSACTLVMCSSVESGPKGDTGPSGPPGPPGVPDVASLRQQVEALQGQVQHLQAAFSQYKKVENPQIAAHVISEASSKTTSVLQWAEKGYYTMSNNLVTLENGKQLTVKRQGLYYIYAQVTFCSNREASSQAPFIASLCLKSPGRFERILLRAANTHSSAKPCGQQSIHLGGVFELQPGASVFVNVTDPSQVSHGTGFTSFGLLKL | binds |
| construct encoded by pTG19968: [N-terminus]-[collagen domain(12)]-[coiled-coil neck domain]-[CD40L] (ligand) AEMKTYSHRTMPSACTLVMCSSVESGQAGPVGPKGDNGSVGEPGPKGDTGPSGPPGPPGVPDVASLRQQVEALQGQVQHLQAAFSQYKKVENPQIAAHVISEASSKTTSVLQWAEKGYYTMSNNLVTLENGKQLTVKRQGLYYIYAQVTFCSNREASSQAPFIASLCLKSPGRFERILLRAANTHSSAKPCGQQSIHLGGVFELQPGASVFVNVTDPSQVSHGTGFTSFGLLKL | binds |
